From patent US7626003B2, “Genetically engineered cDNA of rat bcl-x gene and an improved protein” (priority 1999, dated 2009)

B1: TAT-Bcl-xFNK: Bcl-xFNK in which a protein-transduction-domain peptide of HIV TAT protein is fused at the N-terminal (protein)
chain: YGRKKRRQRRRMSQSNRELVVDFLSYKLSQKGFSWSNFSDVEENRTEAPEETEPERETPSAINGNPSWHLADSPAVNGATGHSSSLDAREVIPMAAVKQALREAGDEFELRYRRAFSDLTSQLHITPGTAYQSFEQVVNELFRDGVNWGRIVAFFSFGGALCVESVDKEMQVLVSKIASWMATYLNDHLEPWIQENGGWDTFVDLYGNNAAAESRKGQERFNRWFLTGMTVAGVVLLGSLFSRK
B2: Bcl-xFNK: improved protein of rat Bcl-xL, SEQ ID NO: 3, with substitutions Tyr22Phe; Gln26Asn; Arg165Lys (protein)
chain: MSQSNRELVVDFLSYKLSQKGFSWSNFSDVEENRTEAPEETEPERETPSAINGNPSWHLADSPAVNGATGHSSSLDAREVIPMAAVKQALREAGDEFELRYRRAFSDLTSQLHITPGTAYQSFEQVVNELFRDGVNWGRIVAFFSFGGALCVESVDKEMQVLVSKIASWMATYLNDHLEPWIQENGGWDTFVDLYGNNAAAESRKGQERFNRWFLTGMTVAGVVLLGSLFSRK
modifications: Artificial Sequence Modified Protein of SEQ ID NO 2
notes: Gln26Asn; Arg165Lys
B3: Bcl-xL: wild-type protein expressed from the rat bcl-x gene, SEQ ID NO: 2 (protein, listed as Rattus norvegicus)
chain: MSQSNRELVVDFLSYKLSQKGYSWSQFSDVEENRTEAPEETEPERETPSAINGNPSWHLADSPAVNGATGHSSSLDAREVIPMAAVKQALREAGDEFELRYRRAFSDLTSQLHITPGTAYQSFEQVVNELFRDGVNWGRIVAFFSFGGALCVESVDKEMQVLVSRIASWMATYLNDHLEPWIQENGGWDTFVDLYGNNAAAESRKGQERFNRWFLTGMTVAGVVLLGSLFSRK

Experiments:
[1] = tested on: HeLa cells; test: Incorporation of TAT-Bcl-xFNK protein in cells (immunofluorescence); format: cell-based; settings: 1 μM in medium, 24 hours, FITC immunofluorescence (FIG. 18)
Description: TAT-Bcl-xFNK protein (1 μM) was added to DMEM/F-12 (Life Technologies) containing 10% FBS (fetal bovine serum), a medium for HeLa cells cultured in a Slide Chamber (Lab-Tek), and the cells were incubated in a CO2 incubator for 24 hours. The cells were then washed twice with PBS. The cells were fixed with paraformaldehyde (4%) dissolved in PBS at room temperature for 45 min. The cells were washed 3 times with PBS (5 minutes/round), and incubated in PBS containing 10% FBS for 20 min. The cells were washed 3 times with PBS (5 minutes/round), and treated with 1.5% FBS-PBS solution containing an anti-rat Bcl-xL monoclonal antibody 35-32 (murine origin) for 30 min. The cells were washed 3 times with PBS (5 minutes/round), and treated with 1.5% FBS-PBS solution containing an anti-mouse IgG antibody conjugated with FITC, for 30 minutes. The cells were washed 3 times with PBS (5 minutes/round), mounted in PBS, and sealed to observe under a fluorescence microscope.

[2] = tested on: chondrocyte of cartilage slice from Osteoarthritis patients; test: Cell death-inhibiting activity in chondrocytes of cartilage slice culture; format: cell-based, human; settings: 0.2 μM in culture medium, up to day 9, hematoxylin-eosin (FIGS. 19-24)
Description: Cartilage was obtained from the femoral bone head of Osteoarthritis patients undergoing total hip arthroplasty. The cartilage tissue above the subchondral bone (10×10 mm; 1.2 mm in thickness) was aseptically sliced using a single-edged razor. The cartilage slice was placed in a 24-well plate and incubated with a DMEM/Ham F-12 mixed medium (Life Technologies) containing 20% FBS (fetal bovine serum) at 37° C. in a CO2 incubator. For a comparative experiment, the expression vector of TAT-Bcl-xL was constructed in the same manner as TAT-Bcl-xFNK, and TAT-Bcl-xL protein was partially purified from Escherichia coli (TAT-Bcl-xL preparation has the same purity). TAT-Bcl-xFNK (prepared from the inclusion body) or TAT-Bcl-xL (prepared from the inclusion body) were added to the culture medium at a concentration of 0.2 μM. As a control, an equal amount of PBS (a solvent used to solubilize the proteins) containing 7M urea and 1 mM DTT was added. The culture medium containing the protein was changed on day 4 and day 7. After incubation for 4 days and 9 days, the cartilage slice was frozen to prepare frozen sections using a cryostat. The sections were stained with hematoxylin-eosin to evaluate the death of chondrocyte.

[3] = tested on: hepatocytes; test: Inhibition of the death of hepatocytes caused by steroid hormone (dexamethasone) in mice; format: in vivo; settings: mouse, 100 μg intraperitoneal 3 hours before 0.5 mg dexamethasone i.p., liver sections 3 hours later (FIGS. 25-27)
Description: Three 8-week old mice ([…], 20 g body weight, female) were divided into 3 groups (A, B and C). To the mouse of Group A was intraperitonealy administered PBS solution (0.8 ml) containing 100 μg of TAT-Bcl-xFNK protein (prepared from the soluble fraction). To the mice of Group B and Group C (control) was intraperitonealy administered PBS (0.8 ml) in the same manner. The mice were put back into cages, and after a lapse of 3 hours 0.5 ml of 25% ethanol/PBS solution containing 0.5 mg of a steroid hormone (dexamethasone) was intraperitonealy administered to the mice of Group A and Group B. To the mouse of Group C was intraperitonealy administered 0.5 ml of 25% ethanol/PBS solution. They were put back into cages, and after a lapse of 3 hours killed. Their livers were taken out, and frozen to prepare frozen sections with a cryostat. The sections were stained with hematoxylin-eosin to evaluate the death of hepatocyte.

[4] = tested on: human leukemia cell line Jurkat; test: Resistance of Jurkat transfectants to apoptosis induced by serum withdrawal (trypan blue exclusion); format: cell-based; settings: serum-free RPMI1640, surviving cells counted daily (FIG. 3)
Description: The cells were washed 3 times with PBS and suspended in RPMI1640 medium containing no serum at 1×10^5 cells/ml. […] The number of the cells was carefully controlled to be less than 5×10^5 cells/ml. When the cell number was expected to exceed the limitation, the culture medium was diluted 2 fold. Every 3 days, the half of the serum-free medium was replaced with the fresh medium.

[5] = tested on: human leukemia cell line Jurkat; test: Resistance of Jurkat transfectants to anti-Fas antibody (trypan blue exclusion); format: cell-based; settings: anti-Fas antibody CH-11 1-1000 ng/ml, 1 day (FIG. 4)
Description: The results are shown in FIG. 4, wherein the number of the cells incubated without the antibody was taken as 100%.

[6] = tested on: human leukemia cell line Jurkat; test: Resistance of Jurkat transfectants to heat treatment (trypan blue exclusion); format: cell-based; settings: 45° C. for 10 minutes (FIG. 12)
[7] = tested on: human leukemia cell line Jurkat; test: Dehydrogenase activity of Jurkat transfectants after heat treatment (WST-1 assay); format: cell-based; settings: 45° C. for 10 minutes, 1st day (FIG. 13)
Description: The cells were harvest by centrifugation, then suspended in an equal amount of the fresh culture medium, and incubated at 37° C. In addition, dehydrogenase activities of the cells (100 μl of the culture broth) were determined at 1st day using the Cell Counting Kit (Dojin Chemical) and WST-1 as a substrate (WST-1 Assay). The results are shown in FIG. 13, wherein the enzyme activity of the cells without heat treatment was taken as 100%.

[8] = tested on: murine premyeloid cell line FDC-P1; test: Resistance of FDC-P1 transfectants to TN-16 and staurosporine (WST-1 assay); format: cell-based; settings: TN-16 50 μM
Description: (§1) For the transfectant FDC-P1bcl-xFNK cells prepared in Example 2, the resistance was examined to a variety of apoptosis-inducing stimuli. In these figures, the empty marks, ⋄, □, Δ, ∇, and ◯ represent 5 independent transfectants, FDC-P1bcl-xFNK-1, -2, -3, -4, and -5, respectively. […] The mark ▪ represents FDC-P1vec in which the empty vector plasmid DNA has been introduced.
The cells were suspended in culture medium at 2×10^5 cells/ml, to which TN-16 (50 μM) and staurosporine (10 nM) was then added. The dehydrogenase activity of the cells (100 μl of the culture broth) was determined daily using the Cell Counting Kit (Dojin Chemical) and WST-1 as a substrate (WST-1 Assay). The enzyme activity was taken as 100% immediately before addition of the agents.

[9] = tested on: murine premyeloid cell line FDC-P1; test: Resistance of FDC-P1 transfectants to apoptosis induced by depletion of the cytokine IL-3; format: cell-based
Source text: as §1
The result are shown in FIG. 16, in which the number of the surviving cells immediately after depletion of IL-3 was taken as 100%. In this experiment, the cells other than FDC-P1vec were diluted 5 times with the fresh medium containing no IL-3 every 3rd day.

[10] = tested on: Chinese hamster ovary cell CHO; test: Incubation of CHO transfectants in serum-free medium; format: cell-based
Description: The CHO cells (1×10^5 cells) were suspended in culture medium DMEM/F-12 (GIBCO BRL) containing 10% fetal bovine serum, and incubated in a 60-mm dish overnight. The linearized pEF1-BOSbcl-xY22F/Q26N/R165K (10 μg) and the linearized pST-neoB (0.5 μg) having a drug Geneticin-resistant gene were introduced into the CHO cells using a SuperFect Transfection Reagent kit (Qiagen). As a control, the linearized empty vector pEF1-BOS or the linearized pEF1-BOSbcl-x were introduced together with the linearized pST-neoB into the CHO cells. After the transfection treatment, the cells were incubated in culture medium DMEM/F-12 containing 10% fetal bovine serum overnight. Geneticin (700 μg/ml) was added, and the incubation was continued to yield the transfected cells. In the same manner as in Example 3, the transfectants expressing the improved protein Bcl-xFNK or the wild-type Bcl-xL abundantly and to the same level were selected. Thus, CHObcl-x, CHObcl-xFNK, and CHOvec (transfected with the empty vector) were obtained.
Three transfectants, CHObcl-x, CHObcl-xFNK, and CHOvec, prepared in Example 6 were incubated in culture medium DMEM/F-12 containing 10% fetal bovine serum. The cells (1×10^3 cells) were plated in a 100-mm dish containing the medium DMEM/F-12 containing 3% fetal bovine serum. […]

[11] = tested on: human leukemia cell line Jurkat
Description: For the transfected Jurkatbcl-xFNK cells prepared in Example 2, the resistance (non-sensitivity) to a variety of apoptosis-inducing stimuli was examined.
The cells were suspended in RPMI1640 medium at 1×10^5 cells/ml, to which staurosporine (20 nM), TN-16 (10 μM), camptothecin (10 μM), hydroxyurea (1 mM), trichostatin A (0.25 μg/ml), hydrogen peroxide (0.05 mM), or paraquat (1 mM) was then added. And the cells were incubated. The surviving cells were counted by the trypan blue exclusion everyday.

Row | Molecule | incorporation of the protein into cells [1] | inhibition of the death of chondrocyte [2] | inhibition of degeneration of hepatic tissue and cell death caused by dexamethasone [3] | survival of transfected cells after serum withdrawal [4] | resistance of transfected cells to anti-Fas antibody [5] | resistance of transfected cells to heat treatment [6] | dehydrogenase activity after heat treatment (WST-1) [7] | resistance of transfected cells to TN-16 and staurosporine ([8]; FDC-P1 transfectants (5 independent), staurosporine 10 nM (FIGS. 14, 15)) | dehydrogenase activity under TN-16 and staurosporine (WST-1) ([8]; FDC-P1 transfectants, staurosporine 10 nM, daily) | growth in the absence of IL-3 ([9]; medium without IL-3) | resistance to apoptosis induced by depletion of IL-3 ([9]; medium without IL-3 but with serum (FIG. 16)) | growth of transfected CHO cells in serum-free medium ([10]; DMEM/F-12 lacking serum from day 6, another 6 days (FIG. 17)) | dying or dead cells in colonies in serum-free medium ([10]; compared with CHObcl-x expressing Bcl-xL (FIG. 17)) | resistance of transfected cells to cytotoxic drugs [11]
1 | B1 | has passed through the cellular membrane and has been incorporated in the cells | inhibits the death of chondrocyte more strongly than TAT-Bcl-xL | markedly inhibited |  |  |  |  |  |  |  |  |  |  | 
2 | B2 |  |  |  | survived for a longer period than the wild-type Bcl-xL-expressing cells | high resistance to the highly concentrated anti-Fas antibody | high resistance to heat treatment | maintained at high level even after heat treatment | high resistance to treatment with TN-16 and staurosporine | maintained at high level | could grow even in the absence of IL-3 | higher resistance than the transfectant expressing the wild-type Bcl-xL | grew far better than CHOvec | fewer cells were dying or dead | high resistance to all of the cytotoxic drugs tested
3 | B3 |  |  |  | survived longer than the control parent cells and the vector-transfected cells |  |  |  |  |  |  |  |  |  | 
